Broadly, the stoichiometry N is a count of units in the complex or per binding partner.

The experiment addresses Protein A (ProA)-tagged INTAC (human) (UniProt Q8N201). Description: pull-down; in vitro; ProA-tagged INTAC incubated with the indicated purified subcomplexes and immobilised onto IgG resin, washed, SDS-PAGE and Coomassie blue staining; some lanes with DSIF, NELF, a DNA-RNA scaffold or a PP2A inhibitor added.

Substance “human RNA polymerase II overexpressed in Expi293F cells (from UniProt P24928 1-1970; P30876 1-1174; P19387 1-275; P52435 1-117) (complex)” registered a stoichiometry N of 1.

The values are drawn from publication PMC10501182.
